Kd data for three substances are collected here from paper PMC4691841.

Some targets named below: H3(1-10)R2me2a peptide (UniProt P68431); H3(1-15)T3ph peptide (UniProt P68431); H3(1-15)K4me3 peptide (UniProt P68431); histone H3(1-10) peptide (UniProt P68431).
Holding throughout (assay): ITC

Sequence of UHRF1 PHD finger (PHD_(UHRF1)) (Q96T88 298-367): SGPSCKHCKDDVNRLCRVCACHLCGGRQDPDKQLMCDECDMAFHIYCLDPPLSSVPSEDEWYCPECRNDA

For “UHRF1 PHD finger (PHD_(UHRF1)) (from UniProt Q96T88-2 311-380) (domain or fragment)”, the Kd – broadly, the free concentration of one partner at which half of the binding sites on the other are occupied at equilibrium, for simple one-to-one binding – was 44.9 µM with H3(1-10)R2me2a peptide, more than 500 µM in the assay with H3(1-15)T3ph peptide and 7.3 µM in the assay with H3(1-15)K4me3 peptide.

For the substance “PHD_(UHRF1) D350A mutant (from UniProt Q96T88-2 311-380) (domain or fragment)”, the Kd in the assay with histone H3(1-10) peptide stood at 47 µM.

As for “PHD_(UHRF1) D347A mutant (from UniProt Q96T88-2 311-380) (domain or fragment)”, the Kd with histone H3(1-10) peptide was 95 µM.
